In doi:10.1101/2023.12.08.570772 (bioRxiv, 2023):
Changes are numbered by the printed parent chain.

B1: Full length MAGEA4 WT (N-terminal histidine tag) (natural protein)
chain: MSSEQKSQHCKPEEGVEAQEEALGLVGAQAPTTEEQEAAVSSSSPLVPGTLEEVPAAESAGPPQSPQGASALPTTISFTCWRQPNEGSSSQEEEGPSTSPDAESLFREALSNKVDELAHFLLRKYRAKELVTKAEMLERVIKNYKRCFPVIFGKASESLKMIFGIDVKEVDPASNTYTLVTCLGLSYDGLLGNNQIFPKTGLLIIVLGTIAMEGDSASEEEIWEELGVMGVYDGREHTVYGEPRKLLTQDWVQENYLEYRQVPGSNPARYEFLWGPRALAETSYVKVLEHVVRVNARVRIAYPSLREAALLEEEEGV

Columns and labels:
[1] = target: His-tagged full length (FL) wildtype (WT) RAD18 (human, UniProt Q9NS91 1-495); test: cross-linking
Chain of His-tagged full length (FL) wildtype (WT) RAD18 (Q9NS91 whole entry): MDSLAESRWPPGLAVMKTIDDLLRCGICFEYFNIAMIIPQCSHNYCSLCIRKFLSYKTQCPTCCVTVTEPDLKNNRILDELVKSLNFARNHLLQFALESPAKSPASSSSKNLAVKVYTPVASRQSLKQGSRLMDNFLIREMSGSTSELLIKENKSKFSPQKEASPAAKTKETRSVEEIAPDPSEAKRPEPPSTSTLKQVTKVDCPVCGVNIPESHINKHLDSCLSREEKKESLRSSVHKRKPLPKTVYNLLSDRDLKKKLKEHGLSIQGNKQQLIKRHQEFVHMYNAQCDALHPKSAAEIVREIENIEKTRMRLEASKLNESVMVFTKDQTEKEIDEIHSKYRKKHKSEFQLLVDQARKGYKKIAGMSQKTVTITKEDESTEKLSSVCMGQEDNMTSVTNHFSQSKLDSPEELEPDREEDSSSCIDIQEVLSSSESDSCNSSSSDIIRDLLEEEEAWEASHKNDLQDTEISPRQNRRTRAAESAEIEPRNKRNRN

[2] = target: B1; test: ITC
Full length MAGEA4 M161D = target: T1, Full length MAGEA4 M161D (human, UniProt P43358 1-317, M161D); test: ITC
T1 sequence: B1 chain with M161D

Row | Binder | binding result [1] | Kd [2] | Kd (Full length MAGEA4 M161D)
1 | B1 | binds |  | 
2 | SKYRKKHKSEFQLLVDQARKGYKKIAG [RAD18 R6BD peptide (27 amino acid peptide containing amino acids 340-366 of RAD18)] |  | 405 nM | 1660 nM
